Laboratory results reported in patent US20240209099A1 (SUZHOU TRANSCENTA THERAPEUTICS, published 2024).

Columns and labels:
[1] = molecular target: T1, Recombinant Human VEGFR2/KDR Protein, His tag (hVEGFR2-his) (human, UniProt P35968 20-764); test: SPR (Biacore), antibody captured by anti-Fc, antigen 2.5-80 nM
T1 construct: Expressed in HEK293, bought from ACRO Biosystems; also called human VEGFR2-his; Human VEGFR2/KDR-His
Procedure, shortened: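 Human or mouse Fc-captured antibody (200–300 RU) on anti-Fc CM5 surface; antigen injected at 2.5–80 nM in HBS-EP pH 7.4 with 180 s association. Reference-cell-subtracted sensorgrams; regeneration with glycine pH 1.5.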

[2] = molecular target: T2, human VEGFR2 on HUVEC cells (human, UniProt P35968 20-1356); test: flow cytometry on HUVEC cells, MFI, anti-human IgG (H+L)-PE
T2 construct: also called hVEGFR2 on HUVEC
Method: Same methods with Example 11. Briefly, Log phase HUVEC cells were collected and added to each tube. Then 100 μl/tube serial diluted humanized antibodies in FACS buffer were added and kept at 4° C. for 1 hr. Binding of antibodies to HUVEC was detected by PE signal of the 2nd antibody (anti-hIgG (H+L)-PE), which was added after the 1st antibodies. (see FIG. 15).

[3] = molecular target: T1, Recombinant Human VEGFR2/KDR Protein, …; test: ELISA, hVEGFR2-his coated, anti-human Fc-HRP; antibody made in 293T cells
Method: Same protocol of Example 4 except using HRP conjugated goat anti-human Fc antibody as secondary antibody. Binding to hVEGFR2-his and rhesus VEGFR2-his (Acrobiosystems, Cat #VE2-C52H3) were also analyzed head-to-head.
Same protocol of Example 9.

[4] = molecular target: T1, Recombinant Human VEGFR2/KDR Protein, …; test: ELISA, human VEGFR2-his coated, anti-human Fc-HRP; antibody made in CHO cells
[5] = molecular target: T3, Recombinant Rhesus macaque VEGFR2/KDR Protein, His tag (rhesus macaque); test: ELISA, rhesus VEGFR2-his coated, anti-human Fc-HRP; antibody made in CHO cells
T3 construct: Expressed in HEK293, bought from ACRO Biosystems; also called rhesus VEGFR2-his; rhesus VEGFR2
T3 chain: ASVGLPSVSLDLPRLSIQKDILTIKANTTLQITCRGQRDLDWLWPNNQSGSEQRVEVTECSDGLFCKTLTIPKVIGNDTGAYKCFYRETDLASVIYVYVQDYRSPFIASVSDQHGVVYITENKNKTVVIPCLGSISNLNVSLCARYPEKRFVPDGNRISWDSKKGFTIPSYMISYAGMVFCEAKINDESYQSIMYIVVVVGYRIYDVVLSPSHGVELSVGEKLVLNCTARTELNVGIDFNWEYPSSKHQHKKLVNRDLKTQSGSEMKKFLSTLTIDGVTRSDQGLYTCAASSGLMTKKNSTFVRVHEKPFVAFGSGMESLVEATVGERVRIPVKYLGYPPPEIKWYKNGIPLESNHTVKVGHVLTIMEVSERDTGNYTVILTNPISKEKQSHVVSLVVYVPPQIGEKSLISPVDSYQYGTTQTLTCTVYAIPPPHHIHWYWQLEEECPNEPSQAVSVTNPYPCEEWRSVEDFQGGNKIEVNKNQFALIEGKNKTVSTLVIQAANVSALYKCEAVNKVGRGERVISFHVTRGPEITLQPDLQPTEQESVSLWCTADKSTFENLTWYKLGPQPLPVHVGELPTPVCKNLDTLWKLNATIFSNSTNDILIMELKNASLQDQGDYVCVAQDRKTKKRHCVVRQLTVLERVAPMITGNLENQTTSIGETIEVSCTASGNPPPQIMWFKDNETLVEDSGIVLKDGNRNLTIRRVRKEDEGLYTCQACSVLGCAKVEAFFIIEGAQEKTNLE

[6] = molecular target: T1, Recombinant Human VEGFR2/KDR Protein, …; test: competition ELISA: VEGF-A coated (0.25 ug/ml), antibody titrated together with 1 ug/ml human VEGFR2, detection with mouse anti-VEGFR2 serum and anti-mouse Fc-HRP; blocked ligand VEGF-A
Method: (§1) For this assay, 0.25 μg/ml VEGF-A was coated on ELISA plate before a mixture of chimeric antibodies and VEGFR2 were added. To detect free VEGF-A (not bind to VEGFR2), 1:1000 diluted mouse serum (mouse previous immunized with human VEGFR2) were added and HRP conjugated goat anti-mouse Fc antibody was used as secondary antibody.
(§2) Same protocol of Example 10. Briefly, 0.25 μg/ml VEGF-A was coated overnight at 4° C. After blocking, serial diluted 54-H2L1, 48-H3L1, Ramucirumab and 1 μg/ml human VEGFR2 or rhesus VEGFR2 were added at the same time for 2 hour-incubation. After wash, mouse serum containing polyclone VEGFR2 antibody and HRP conjugated goat anti-mouse Fc antibody were added for detection of free VEGF-A coated on the plates (see FIGS. 13A and 13B).

[7] = molecular target: T3, Recombinant Rhesus macaque VEGFR2/KDR …; test: competition ELISA: VEGF-A coated (0.25 ug/ml), antibody titrated together with 1 ug/ml rhesus VEGFR2, detection with mouse anti-VEGFR2 serum and anti-mouse Fc-HRP; blocked ligand VEGF-A
Method: as §1, §2

B1: 54-H2L1 (humanized Mab54) (antibody, human IgG1, V domains shown)
VH: EVQLVESGGGLVKPGGSLRLSCAASGFTFSMYGMSWVRQAPGKRLEWVASISIGGSYTYYADSVKGRFTISRDNAKNTLYLQMNSLRAEDTAVYYCARELDGNYDYWGQGTTLTVSS
VL: DIVITQDELSLPVTFGESVSISCRSSKSLLYKDGKTYLNWFLQRPGQSPQLLIYLMSTRASGVSDRFSGSGSGTDFTLKISRVEAEDVGIYYCQQLVEYPFTFGSGTKLEIK
notes: also called 54-H2L1 (CHO); humanized 54 variant H2L1
Kd [1]: 2.51 nM | koff [1]: 0.000138 s⁻¹ | kon [1]: 54800 M⁻¹ s⁻¹ | EC50 (read off the curve) [2]: ~0.3 µg/mL | EC50 [3]: 0.0288 µg/mL | EC50 [4]: 7.55 ng/mL | EC50 [5]: 0.0111 µg/mL | IC50 [6]: 0.654 µg/mL | IC50 [7]: 0.805 µg/mL
